Molecular target: Myc-tagged dimeric ECDT (Myc-HR-ECDT) (UniProt P12830 731-882)
Experiment: co-IP

Myc-tagged dimeric ECDT (Myc-HR-ECDT), sequence (P12830 731-882): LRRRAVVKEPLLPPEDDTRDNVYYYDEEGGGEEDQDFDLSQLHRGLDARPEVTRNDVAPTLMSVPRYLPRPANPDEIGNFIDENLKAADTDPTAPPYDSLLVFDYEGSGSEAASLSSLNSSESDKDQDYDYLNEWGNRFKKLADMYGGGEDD

B1: p120-catenin, endogenous in HEK293 cells (natural protein, human (endogenous in HEK293), UniProt O60716 1-968, looked up)
chain: MDDSEVESTASILASVKEQEAQFEKLTRALEEERRHVSAQLERVRVSPQDANPLMANGTLTRRHQNGRFVGDADLERQKFSDLKLNGPQDHSHLLYSTIPRMQEPGQIVETYTEEDPEGAMSVVSVETSDDGTTRRTETTVKKVVKTVTTRTVQPVAMGPDGLPVDASSVSNNYIQTLGRDFRKNGNGGPGPYVGQAGTATLPRNFHYPPDGYSRHYEDGYPGGSDNYGSLSRVTRIEERYRPSMEGYRAPSRQDVYGPQPQVRVGGSSVDLHRFHPEPYGLEDDQRSMGYDDLDYGMMSDYGTARRTGTPSDPRRRLRSYEDMIGEEVPSDQYYWAPLAQHERGSLASLDSLRKGGPPPPNWRQPELPEVIAMLGFRLDAVKSNAAAYLQHLCYRNDKVKTDVRKLKGIPVLVGLLDHPKKEVHLGACGALKNISFGRDQDNKIAIKNCDGVPALVRLLRKARDMDLTEVITGTLWNLSSHDSIKMEIVDHALHALTDEVIIPHSGWEREPNEDCKPRHIEWESVLTNTAGCLRNVSSERSEARRKLRECDGLVDALIFIVQAEIGQKDSDSKLVENCVCLLRNLSYQVHREIPQAERYQEAAPNVANNTGPHAASCFGAKKGKDEWFSRGKKPIEDPANDTVDFPKRTSPARGYELLFQPEVVRIYISLLKESKTPAILEASAGAIQNLCAGRWTYGRYIRSALRQEKALSAIADLLTNEHERVVKAASGALRNLAVDARNKELIGKHAIPNLVKNLPGGQQNSSWNFSEDTVISILNTINEVIAENLEAAKKLRETQGIEKLVLINKSGNRSEKEVRAAALVLQTIWGYKELRKPLEKEGWKKSDFQVNLNNASRSQSSHSYDDSTLPLIDRNQKSDKKPDREEIQMSNMGSNTKSLDNNYSTPNERGDHNRTLDRSGDLGDMEPLKGTTPLMQDEGQESLEEELDVLVLDDEGGQVSYPSMQKI
  fold affinity against the monomer (Myc-ECDT): ~10 fold

From publication PMC2063960 (The Journal of Cell Biology, 2007)
